Patent US20250205353A1 (SYNAFFIX B V, published 2025)
Values belong to the binder of their own block, whether it stands above or below them.

Columns and labels:
[1] = biological target: T1, Nectin-4 on SK-BR-3 cells (UniProt Q96NY8 32-510, limits assumed); test: cell-based or functional assay
T1 sequence (looked up): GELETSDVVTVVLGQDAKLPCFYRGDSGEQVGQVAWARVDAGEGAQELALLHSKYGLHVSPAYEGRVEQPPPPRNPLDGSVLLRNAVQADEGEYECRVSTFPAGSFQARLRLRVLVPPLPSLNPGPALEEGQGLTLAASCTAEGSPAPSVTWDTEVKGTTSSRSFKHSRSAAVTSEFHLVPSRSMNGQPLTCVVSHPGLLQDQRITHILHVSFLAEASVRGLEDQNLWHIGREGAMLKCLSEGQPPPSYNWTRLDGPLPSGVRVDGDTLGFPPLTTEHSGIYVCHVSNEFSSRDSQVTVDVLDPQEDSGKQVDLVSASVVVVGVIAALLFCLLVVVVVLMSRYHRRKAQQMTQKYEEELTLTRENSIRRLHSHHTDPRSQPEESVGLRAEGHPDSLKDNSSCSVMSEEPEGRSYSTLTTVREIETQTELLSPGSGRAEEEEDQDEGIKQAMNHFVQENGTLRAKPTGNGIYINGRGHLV

[2] = biological target: T2, Human Nectin-4 (PVRL4 Protein, ECD, His Tag) (human, UniProt Q96NY8 32-349); test: ELISA; His-tagged Nectin-4 ECD on nickel NTA plates, detection with anti-human IgG-HRP
T2 construct: extracellular domain; Recombinant protein captured on nickel NTA plates; also called hNectin-4; PVRL4-His; not shown: His tag
T2 sequence (looked up): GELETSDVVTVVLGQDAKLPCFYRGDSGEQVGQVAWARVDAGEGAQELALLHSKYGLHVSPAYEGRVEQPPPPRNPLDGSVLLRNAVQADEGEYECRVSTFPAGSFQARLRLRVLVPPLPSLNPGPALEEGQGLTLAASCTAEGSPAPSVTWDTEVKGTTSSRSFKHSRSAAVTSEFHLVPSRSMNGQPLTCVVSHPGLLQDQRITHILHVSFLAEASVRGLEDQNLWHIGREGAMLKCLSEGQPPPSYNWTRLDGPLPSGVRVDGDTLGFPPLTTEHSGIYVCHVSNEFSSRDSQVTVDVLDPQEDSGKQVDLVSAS
Method: Nickel NTA plates (Pierce™ Nickel coated plated, ThermoScientific™) were washed three times prior to use. Human Nectin-4 (PVRL4 Protein, ECD, His Tag) was dissolved at a concentration of […] in 0.1% BSA in PBS (PBA). 100 μL was added to each well and incubated while shaking for 1 hour at room temperature. After removal, the plate was washed 3x with 0.05% Tween-20 in PBS (washing buffer). ADCs were diluted in 0.1% PBA to a final concentration of 8 μg/mL and 100 μL was added to each well (in triplo). ADCs were incubated for 1 h at room temperature. Prior to the addition of 100 μL 1:1000 dilution of secondary antibody (Goat anti-human IgG, HRP conjugate, Invitrogen) the plate was washed 3x with washing buffer. The plate was incubated again for 1 h at room temperature and subsequently washed 3x with washing buffer and 3x with PBS. Finally, 100 μL TMB ELISA substrate (1 Step™ Turbo TMB ELISA substrate, ThermoScientific™) was added and incubated for 1 minute. The absorbance of the colorimetric signal was measured with Infinite® M1000 (Tecan) at 652 nm. Data was plotted corrected for the background (see FIG. 8).

B1: Enfortumab YTE-4 (other)
heavy: EVQLVESGGGLVQPGGSLRLSCAASGFTFSSYNMNWVRQAPGKGLEWVSYISSSSSTIYYADSVKGRFTISRDNAKNSLSLQMNSLRDEDTAVYYCARAYYYGMDVWGQGTTVTVSSASTKGPSVFPLAPSSKSTSGGTAALGCLVKDYFPEPVTVSWNSGALTSGVHTFPAVLQSSGLYSLSSVVTVPSSSLGTQTYICNVNHKPSNTKVDKRVEPKSCDKTHTCPPCPAPELLGGPSVFLFPPKPKDTLYITREPEVTCVVVDVSHEDPEVKFNWYVDGVEVHNAKTKPREEQYNSTYRVVSVLTVLHQDWLNGKEYKCKVSNKALPAPIEKTISKAKGQPREPQVYTLPPSREEMTKNQVSLTCLVKGFYPSDIAVEWESNGQPENNYKTTPPVLDSDGSFFLYSKLTVDKSRWQQGNVFSCSVMHEALHNHYTQKSLSLSPGK
light: DIQMTQSPSSVSASVGDRVTITCRASQGISGWLAWYQQKPGKAPKFLIYAASTLQSGVPSRFSGSGSGTDFTLTISSLQPEDFATYYCQQANSFPPTFGGGTKVEIKRTVAAPSVFIFPPSDEQLKSGTASVVCLLNNFYPREAKVQWKVDNALQSGNSQESVTEQDSKDSTYSLSSTLTLSKADYEKHKVYACEVTHQGLSSPVTKSFNRGEC
modifications: linker-payload 4 (BCN-HS-(vc-PABC-MMAE)2) clicked to 6-N3-GalNAc on the trimmed core GlcNAc of the heavy-chain glycan; average DAR 3.67
IC50 (nM), in vitro cytotoxicity on SK-BR-3 cells (ATPlite luminescence) [1]: 0.05 nM

binding result [2]: binds
B2: enfortumab (I) (antibody, human IgG1, kappa)
heavy: not shown
light: B1 light
notes: IgG transiently expressed in CHO K1 cells; also called Ha22-2(2,4)6.1

binding result [2]: binds
B3: enfortumab YTE (II) (antibody, human IgG1, kappa)
heavy: B1 heavy
light: B1 light
notes: also called enfortumab YTE mutant
